# Values quoted from earlier work as cited in PMC3433420.
# Where two headings read alike, the source gives them in different places.
# Legend:
# Conditions in all cases: cited from earlier work
# [1] = biological target: PLCG2-N (Homo sapiens) (UniProt P16885)
# [2] = biological target: YES1 (Homo sapiens) (UniProt P07947)
# [3] = biological target: RASA1-NC (Homo sapiens) (UniProt P20936)
# [4] = biological target: BLK (Homo sapiens) (UniProt P51451)
# [5] = biological target: PLCG2-NC (Homo sapiens) (UniProt P16885)
# PLCG2-NC (Homo sapiens), sequence (P16885 527-740): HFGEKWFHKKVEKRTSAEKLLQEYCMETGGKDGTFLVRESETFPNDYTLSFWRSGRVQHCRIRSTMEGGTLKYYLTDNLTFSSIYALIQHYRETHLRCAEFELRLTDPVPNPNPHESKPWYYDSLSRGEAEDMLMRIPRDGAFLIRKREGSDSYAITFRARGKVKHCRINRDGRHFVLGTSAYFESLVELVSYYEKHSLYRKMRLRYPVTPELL
# [6] = biological target: GRB7 (Homo sapiens) (UniProt Q14451)
# GRB7 (Homo sapiens), sequence (Q14451 426-532): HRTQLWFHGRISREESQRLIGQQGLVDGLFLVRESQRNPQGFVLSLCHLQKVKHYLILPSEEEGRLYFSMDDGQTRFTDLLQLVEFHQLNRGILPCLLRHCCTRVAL
# [7] = biological target: PIK3R2-N (Homo sapiens) (UniProt O00459)
# PIK3R2-N (Homo sapiens), sequence (O00459 325-721): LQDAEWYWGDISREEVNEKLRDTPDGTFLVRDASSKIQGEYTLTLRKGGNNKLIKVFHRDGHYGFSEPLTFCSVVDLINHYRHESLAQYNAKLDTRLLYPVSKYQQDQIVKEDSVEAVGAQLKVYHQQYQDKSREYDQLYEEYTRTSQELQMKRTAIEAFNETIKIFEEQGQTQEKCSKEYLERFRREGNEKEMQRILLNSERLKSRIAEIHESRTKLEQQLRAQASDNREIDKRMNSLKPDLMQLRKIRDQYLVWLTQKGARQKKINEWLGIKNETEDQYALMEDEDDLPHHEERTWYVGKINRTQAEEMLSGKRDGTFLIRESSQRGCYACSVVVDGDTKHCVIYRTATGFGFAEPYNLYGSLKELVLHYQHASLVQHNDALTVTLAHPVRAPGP
# [8] = biological target: ABL2 (Homo sapiens) (UniProt P42684)
# ABL2 (Homo sapiens), sequence (P42684 168-268): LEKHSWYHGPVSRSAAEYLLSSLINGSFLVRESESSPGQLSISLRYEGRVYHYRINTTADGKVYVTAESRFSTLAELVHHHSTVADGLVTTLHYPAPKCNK
# [9] = biological target: PIK3R2-NC (Homo sapiens) (UniProt O00459)
# PIK3R2-NC (Homo sapiens), sequence (O00459 325-721): as the sequence (O00459 325-721) above
# [10] = biological target: PIK3R3-N (Homo sapiens) (UniProt Q92569)
# [11] = biological target: PIK3R1-NC (Homo sapiens) (UniProt P27986)
# PIK3R1-NC (Homo sapiens), sequence (P27986 328-723): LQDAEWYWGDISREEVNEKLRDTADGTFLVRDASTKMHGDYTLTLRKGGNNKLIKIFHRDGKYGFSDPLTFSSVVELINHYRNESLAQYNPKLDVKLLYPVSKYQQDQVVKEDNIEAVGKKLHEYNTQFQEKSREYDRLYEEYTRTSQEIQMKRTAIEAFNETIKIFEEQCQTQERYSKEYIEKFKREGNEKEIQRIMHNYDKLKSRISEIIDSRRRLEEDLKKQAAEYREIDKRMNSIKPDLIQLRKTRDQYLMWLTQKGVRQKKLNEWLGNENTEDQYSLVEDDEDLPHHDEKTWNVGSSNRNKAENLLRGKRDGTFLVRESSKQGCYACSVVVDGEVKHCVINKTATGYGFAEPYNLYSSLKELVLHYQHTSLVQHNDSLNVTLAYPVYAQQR
# [12] = biological target: PIK3R3-NC (Homo sapiens) (UniProt Q92569)
# [13] = biological target: PIK3R1-N (Homo sapiens) (UniProt P27986)
# PIK3R1-N (Homo sapiens), sequence (P27986 328-723): as the sequence (P27986 328-723) above
# [14] = biological target: RASA1-NC (Homo sapiens) (UniProt P20936); remark: listed apart in the source
# [15] = biological target: ABL2 (Homo sapiens) (UniProt P42684); remark: listed apart in the source
# [16] = biological target: RASA1-N (Homo sapiens) (UniProt P20936)
# RASA1-N (Homo sapiens), sequence (P20936 176-446): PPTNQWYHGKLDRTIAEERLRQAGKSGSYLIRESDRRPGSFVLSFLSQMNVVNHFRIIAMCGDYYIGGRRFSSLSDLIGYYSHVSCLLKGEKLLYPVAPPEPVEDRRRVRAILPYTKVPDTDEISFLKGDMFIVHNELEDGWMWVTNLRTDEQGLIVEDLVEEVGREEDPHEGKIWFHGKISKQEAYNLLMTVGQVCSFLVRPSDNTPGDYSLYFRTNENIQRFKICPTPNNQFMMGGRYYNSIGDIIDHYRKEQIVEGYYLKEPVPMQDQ
# [17] = biological target: SLA (Homo sapiens) (UniProt Q13239)
# SLA (Homo sapiens), sequence (Q13239 79-180): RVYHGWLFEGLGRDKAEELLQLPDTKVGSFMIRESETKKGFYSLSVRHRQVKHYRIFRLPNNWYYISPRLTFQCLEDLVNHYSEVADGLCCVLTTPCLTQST
# [18] = biological target: PIK3R3-NC (Homo sapiens) (UniProt Q92569); remark: listed apart in the source
# [19] = biological target: PLCG2-NC (Homo sapiens) (UniProt P16885); remark: listed apart in the source
# [20] = biological target: SHB (Homo sapiens) (UniProt Q15464)
# SHB (Homo sapiens), sequence (Q15464 405-509): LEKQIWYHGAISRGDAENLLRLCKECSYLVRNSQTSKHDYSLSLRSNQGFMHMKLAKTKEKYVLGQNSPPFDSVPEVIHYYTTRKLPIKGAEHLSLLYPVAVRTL
# [21] = biological target: YES1 (Homo sapiens) (UniProt P07947); remark: listed apart in the source
# [22] = biological target: ABL2 (Homo sapiens) (UniProt P42684); remark: listed apart in the source
# [23] = biological target: SYK-NC (Homo sapiens) (UniProt P43405)
# [24] = biological target: PIK3R2-NC (Homo sapiens) (UniProt O00459); remark: listed apart in the source
# [25] = biological target: PIK3R3-C (Homo sapiens) (UniProt Q92569)
# [26] = biological target: PIK3R3-N (Homo sapiens) (UniProt Q92569); remark: listed apart in the source
# [27] = biological target: VAV1 (Homo sapiens) (UniProt P15498)
# VAV1 (Homo sapiens), sequence (P15498 666-770): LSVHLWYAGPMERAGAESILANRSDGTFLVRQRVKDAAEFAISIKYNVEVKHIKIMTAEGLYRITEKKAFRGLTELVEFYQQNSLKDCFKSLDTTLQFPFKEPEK
# [28] = biological target: PIK3R3-NC (Homo sapiens) (UniProt Q92569); remark: listed apart in the source
# [29] = biological target: RASA1-N (Homo sapiens) (UniProt P20936); remark: listed apart in the source
# [30] = biological target: TENC1 (Homo sapiens) (UniProt Q63HR2)
# TENC1 (Homo sapiens), sequence (Q63HR2 1135-1252): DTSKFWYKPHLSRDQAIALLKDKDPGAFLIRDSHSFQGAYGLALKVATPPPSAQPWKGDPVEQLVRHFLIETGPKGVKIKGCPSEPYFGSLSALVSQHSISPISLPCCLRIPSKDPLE
# [31] = biological target: ABL2 (Homo sapiens) (UniProt P42684); remark: listed apart in the source
# [32] = biological target: PIK3R1-N (Homo sapiens) (UniProt P27986); remark: listed apart in the source
# [33] = biological target: PIK3R1-NC (Homo sapiens) (UniProt P27986); remark: listed apart in the source
# [34] = biological target: ABL2 (Homo sapiens) (UniProt P42684); remark: listed apart in the source
# [35] = biological target: SHC1-PTB (Homo sapiens) (UniProt P29353)
# SHC1-PTB (Homo sapiens), sequence (P29353 483-583): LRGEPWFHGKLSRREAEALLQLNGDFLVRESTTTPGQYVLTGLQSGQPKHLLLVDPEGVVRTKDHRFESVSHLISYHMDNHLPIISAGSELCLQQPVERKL
# [36] = biological target: GRB7 (Homo sapiens) (UniProt Q14451); remark: listed apart in the source
# [37] = biological target: SHB (Homo sapiens) (UniProt Q15464); remark: listed apart in the source
# [38] = biological target: VAV1 (Homo sapiens) (UniProt P15498); remark: listed apart in the source
# [39] = biological target: VAV2 (Homo sapiens) (UniProt P52735)
# VAV2 (Homo sapiens), sequence (P52735 668-772): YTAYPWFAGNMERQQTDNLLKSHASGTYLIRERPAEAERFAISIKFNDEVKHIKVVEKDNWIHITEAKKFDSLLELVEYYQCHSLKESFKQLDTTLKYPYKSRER
# [40] = biological target: VAV3 (Homo sapiens) (UniProt Q9UKW4)
# VAV3 (Homo sapiens), sequence (Q9UKW4 667-771): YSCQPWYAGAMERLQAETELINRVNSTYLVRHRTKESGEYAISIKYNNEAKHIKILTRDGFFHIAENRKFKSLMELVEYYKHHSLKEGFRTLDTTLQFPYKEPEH
# [41] = biological target: YES1 (Homo sapiens) (UniProt P07947); remark: listed apart in the source
# [42] = biological target: PIK3R3-NC (Homo sapiens) (UniProt Q92569); remark: listed apart in the source
# [43] = biological target: ITK (Homo sapiens) (UniProt Q08881)
# ITK (Homo sapiens), sequence (Q08881 234-343): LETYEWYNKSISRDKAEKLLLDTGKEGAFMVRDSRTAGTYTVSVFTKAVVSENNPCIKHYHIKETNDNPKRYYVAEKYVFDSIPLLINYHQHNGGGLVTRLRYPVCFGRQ
# [44] = biological target: TNS3 (Homo sapiens) (UniProt Q68CZ2)
# TNS3 (Homo sapiens), sequence (Q68CZ2 1167-1287): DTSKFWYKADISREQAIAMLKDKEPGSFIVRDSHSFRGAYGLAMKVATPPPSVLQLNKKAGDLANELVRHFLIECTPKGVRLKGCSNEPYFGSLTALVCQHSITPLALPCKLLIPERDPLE
# [45] = biological target: NCK2 (Homo sapiens) (UniProt O43639)
# NCK2 (Homo sapiens), sequence (O43639 280-380): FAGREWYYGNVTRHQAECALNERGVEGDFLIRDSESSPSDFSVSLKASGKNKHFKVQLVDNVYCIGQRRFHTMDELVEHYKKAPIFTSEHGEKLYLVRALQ
# [46] = biological target: TENC1 (Homo sapiens) (UniProt Q63HR2); remark: listed apart in the source
# [47] = biological target: SH2D3C (Homo sapiens) (UniProt Q8N5H7)
# SH2D3C (Homo sapiens), sequence (Q8N5H7 215-324): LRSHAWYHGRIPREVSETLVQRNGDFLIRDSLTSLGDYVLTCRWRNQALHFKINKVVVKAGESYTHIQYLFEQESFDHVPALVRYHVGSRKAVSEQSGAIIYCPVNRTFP
# [48] = biological target: RASA1-NC (Homo sapiens) (UniProt P20936); remark: listed apart in the source
# [49] = biological target: RASA1-C (Homo sapiens) (UniProt P20936)
# RASA1-C (Homo sapiens), sequence (P20936 176-446): as the sequence (P20936 176-446) above
# [50] = biological target: SRC (Homo sapiens) (UniProt P12931)
# [51] = biological target: PIK3R1-C (Homo sapiens) (UniProt P27986)
# PIK3R1-C (Homo sapiens), sequence (P27986 328-723): as the sequence (P27986 328-723) above
# [52] = biological target: ABL2 (Homo sapiens) (UniProt P42684); remark: listed apart in the source
# [53] = biological target: PIK3R1-NC (Homo sapiens) (UniProt P27986); remark: listed apart in the source
# [54] = biological target: SHE (Homo sapiens) (UniProt Q5VZ18)
# SHE (Homo sapiens), sequence (Q5VZ18 390-495): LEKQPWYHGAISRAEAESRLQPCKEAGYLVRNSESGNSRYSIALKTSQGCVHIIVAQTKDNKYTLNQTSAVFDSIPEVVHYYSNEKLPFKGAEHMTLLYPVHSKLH
# [55] = biological target: GRB10 (Homo sapiens) (UniProt Q13322)
# GRB10 (Homo sapiens), sequence (Q13322 488-579): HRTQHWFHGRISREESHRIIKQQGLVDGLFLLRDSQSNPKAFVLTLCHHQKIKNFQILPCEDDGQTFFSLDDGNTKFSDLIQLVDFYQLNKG
# [56] = biological target: SHC1-PTB (Homo sapiens) (UniProt P29353); remark: listed apart in the source
# [57] = biological target: SHF (Homo sapiens) (UniProt Q7M4L6)
# SHF (Homo sapiens), sequence (Q7M4L6 318-423): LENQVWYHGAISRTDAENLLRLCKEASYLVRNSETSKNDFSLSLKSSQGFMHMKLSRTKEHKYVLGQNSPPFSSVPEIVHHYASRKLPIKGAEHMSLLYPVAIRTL
# [58] = biological target: SH2D1B (Homo sapiens) (UniProt O14796)
# SH2D1B (Homo sapiens), sequence (O14796 1-106): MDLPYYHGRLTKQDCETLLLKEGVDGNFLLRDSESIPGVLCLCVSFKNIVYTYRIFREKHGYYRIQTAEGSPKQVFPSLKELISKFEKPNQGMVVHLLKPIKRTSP
# [59] = biological target: SYK-NC (Homo sapiens) (UniProt P43405); remark: listed apart in the source
# RASA1-NC (Homo sapiens), sequence (P20936 176-446): as the sequence (P20936 176-446) above
# YES1 (Homo sapiens), sequence (P07947 153-260): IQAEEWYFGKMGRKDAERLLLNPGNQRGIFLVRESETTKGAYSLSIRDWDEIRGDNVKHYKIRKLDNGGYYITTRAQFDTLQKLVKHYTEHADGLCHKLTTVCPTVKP
# PLCG2-N (Homo sapiens), sequence (P16885 527-740): as the sequence (P16885 527-740) above
# BLK (Homo sapiens), sequence (P51451 119-225): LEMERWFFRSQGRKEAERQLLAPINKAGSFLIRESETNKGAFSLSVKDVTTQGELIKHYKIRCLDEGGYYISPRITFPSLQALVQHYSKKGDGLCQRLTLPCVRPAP
substance,measurement,setting,value
…pYHADGGKVd,apparent Kd (screen),[1],647 nM
same,apparent Kd (screen),[2],1890 nM
same,apparent Kd (screen),[3],1400 nM
same,apparent Kd (screen),[4],718 nM
same,apparent Kd (screen),[5],1100 nM
same,apparent Kd (screen),[6],1200 nM
…pYTPMSGNQd,apparent Kd (screen),[7],201 nM
same,apparent Kd (screen),[8],659 nM
same,apparent Kd (screen),[9],461 nM
same,apparent Kd (screen),[10],888 nM
same,apparent Kd (screen),[11],1440 nM
same,apparent Kd (screen),[12],576 nM
same,apparent Kd (screen),[13],541 nM
…pYMDVGSDL,apparent Kd (screen),[14],2000 nM
same,apparent Kd (screen),[15],1130 nM
same,apparent Kd (screen),[16],2000 nM
same,apparent Kd (screen),[17],2000 nM
same,apparent Kd (screen),[18],1510 nM
same,apparent Kd (screen),[19],2000 nM
…pYSSDPTGAd,apparent Kd (screen),[20],862 nM
same,apparent Kd (screen),[21],295 nM
same,apparent Kd (screen),[22],2000 nM
…pYEYMDVGS,apparent Kd (screen),[23],851 nM
same,apparent Kd (screen),[24],385 nM
same,apparent Kd (screen),[25],270 nM
same,apparent Kd (screen),[26],553 nM
same,apparent Kd (screen),[27],2000 nM
same,apparent Kd (screen),[28],97 nM
same,apparent Kd (screen),[29],671 nM
same,apparent Kd (screen),[30],903 nM
same,apparent Kd (screen),[31],158 nM
same,apparent Kd (screen),[32],1250 nM
same,apparent Kd (screen),[33],375 nM
…pYWNHSLPPd,apparent Kd (screen),[34],34 nM
same,apparent Kd (screen),[35],509 nM
…pYLLNWCVQd,apparent Kd (screen),[36],456 nM
same,apparent Kd (screen),[37],276 nM
same,apparent Kd (screen),[38],373 nM
same,apparent Kd (screen),[39],472 nM
same,apparent Kd (screen),[40],960 nM
same,apparent Kd (screen),[41],22 nM
same,apparent Kd (screen),[42],1870 nM
same,apparent Kd (screen),[43],310 nM
same,apparent Kd (screen),[44],1890 nM
same,apparent Kd (screen),[45],195 nM
same,apparent Kd (screen),[46],1140 nM
same,apparent Kd (screen),[47],52 nM
same,apparent Kd (screen),[48],155 nM
same,apparent Kd (screen),[49],1950 nM
same,apparent Kd (screen),[50],84 nM
same,apparent Kd (screen),[51],1850 nM
same,apparent Kd (screen),[52],201 nM
same,apparent Kd (screen),[53],1820 nM
same,apparent Kd (screen),[54],1380 nM
same,apparent Kd (screen),[55],353 nM
same,apparent Kd (screen),[56],1500 nM
same,apparent Kd (screen),[57],1060 nM
same,apparent Kd (screen),[58],1600 nM
same,apparent Kd (screen),[59],240 nM
